Values of other authors, collected in patent US20180147231A1, “METHOD FOR TREATMENT AND PROGNOSIS OF COLORECTAL CANCER” (Oxford University Innovation Limited, priority 2015, published 2018).

Tests used:
IL-22R complex = target: T1, IL-22R complex (Homo sapiens, UniProt Q08334+Q8N6P7); conditions: variant of IL-22 (SEQ ID NO: 5) compared with wild type; cited from earlier work
T1 sequence (Q8N6P7 16-228 limits assumed): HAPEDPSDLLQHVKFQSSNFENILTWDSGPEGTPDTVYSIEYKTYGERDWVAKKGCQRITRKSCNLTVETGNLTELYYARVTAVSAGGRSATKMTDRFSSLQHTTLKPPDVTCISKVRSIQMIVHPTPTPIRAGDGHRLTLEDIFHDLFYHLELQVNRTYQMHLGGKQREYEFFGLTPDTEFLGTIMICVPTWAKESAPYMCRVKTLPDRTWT
T1 sequence (Q08334 20-220 limits assumed): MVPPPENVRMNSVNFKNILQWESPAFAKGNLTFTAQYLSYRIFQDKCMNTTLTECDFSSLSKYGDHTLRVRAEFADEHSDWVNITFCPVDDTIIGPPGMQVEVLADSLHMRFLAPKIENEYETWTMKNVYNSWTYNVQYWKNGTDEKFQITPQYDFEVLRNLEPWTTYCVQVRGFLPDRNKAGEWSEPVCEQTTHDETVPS

[1] = target: T2, IL-22RA1 subunit of the receptor (Homo sapiens, UniProt Q8N6P7); conditions: variant of IL-22 (SEQ ID NO: 5) compared with wild type; cited from earlier work
T2 sequence (Q8N6P7 16-574): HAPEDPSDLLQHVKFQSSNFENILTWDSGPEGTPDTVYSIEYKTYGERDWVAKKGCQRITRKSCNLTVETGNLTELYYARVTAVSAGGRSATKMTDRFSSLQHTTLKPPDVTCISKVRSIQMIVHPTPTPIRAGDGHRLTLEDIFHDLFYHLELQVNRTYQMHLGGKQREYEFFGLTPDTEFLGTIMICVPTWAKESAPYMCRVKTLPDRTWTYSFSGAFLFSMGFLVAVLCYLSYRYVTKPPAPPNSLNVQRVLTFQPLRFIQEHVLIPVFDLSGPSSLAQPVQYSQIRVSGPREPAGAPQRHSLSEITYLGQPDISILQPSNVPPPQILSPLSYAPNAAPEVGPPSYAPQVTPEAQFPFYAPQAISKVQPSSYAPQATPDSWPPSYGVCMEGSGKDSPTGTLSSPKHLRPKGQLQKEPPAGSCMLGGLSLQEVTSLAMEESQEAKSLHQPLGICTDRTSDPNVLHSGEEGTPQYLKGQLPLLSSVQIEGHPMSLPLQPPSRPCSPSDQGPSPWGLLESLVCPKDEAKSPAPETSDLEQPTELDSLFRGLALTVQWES

| Molecule | Binding to the IL-22R complex (IL-22R complex) | Binding to the IL-22RA1 subunit of the receptor [1] |
| --- | --- | --- |
| N54G: reduced-function variant of IL-22 (SEQ ID NO: 5) in which N54 is mutated from asparagine to glutamine (protein, listed as Homo sapiens) MAALQKSVSSFLMGTLATSCLLLLALLVQGGAAAPISSHCRLDKSNFQQPYITGRTFMLAKEASLADNNTDVRLIGEKLFHGVSMSERCYLMKQVLNFTLEEVLFPQSDRFQPYMQEVVPFLARLSNRLSTCHIEGDDLHIQRNVQKLKDTVKKLGESGEIKAIGELDLLFMSLRNACI | reduce binding |  |
| T56A: variant of IL-22 (SEQ ID NO: 5) in which T56 is mutated to alanine (protein, listed as Homo sapiens) MAALQKSVSSFLMGTLATSCLLLLALLVQGGAAAPISSHCRLDKSNFQQPYITNRAFMLAKEASLADNNTDVRLIGEKLFHGVSMSERCYLMKQVLNFTLEEVLFPQSDRFQPYMQEVVPFLARLSNRLSTCHIEGDDLHIQRNVQKLKDTVKKLGESGEIKAIGELDLLFMSLRNACI | reduce binding |  |
| F121A: variant of IL-22 (SEQ ID NO: 5) in which F121 is mutated to alanine (protein, listed as Homo sapiens) MAALQKSVSSFLMGTLATSCLLLLALLVQGGAAAPISSHCRLDKSNFQQPYITNRTFMLAKEASLADNNTDVRLIGEKLFHGVSMSERCYLMKQVLNFTLEEVLFPQSDRFQPYMQEVVPALARLSNRLSTCHIEGDDLHIQRNVQKLKDTVKKLGESGEIKAIGELDLLFMSLRNACI | reduce binding |  |
| R55A: variant of IL-22 (SEQ ID NO: 5) in which R55 is mutated to alanine (protein, listed as Homo sapiens) MAALQKSVSSFLMGTLATSCLLLLALLVQGGAAAPISSHCRLDKSNFQQPYITNATFMLAKEASLADNNTDVRLIGEKLFHGVSMSERCYLMKQVLNFTLEEVLFPQSDRFQPYMQEVVPFLARLSNRLSTCHIEGDDLHIQRNVQKLKDTVKKLGESGEIKAIGELDLLFMSLRNACI | reduce binding |  |
| I161A: variant of IL-22 (SEQ ID NO: 5) in which I161 is mutated to alanine (protein, listed as Homo sapiens) MAALQKSVSSFLMGTLATSCLLLLALLVQGGAAAPISSHCRLDKSNFQQPYITNRTFMLAKEASLADNNTDVRLIGEKLFHGVSMSERCYLMKQVLNFTLEEVLFPQSDRFQPYMQEVVPFLARLSNRLSTCHIEGDDLHIQRNVQKLKDTVKKLGESGEAKAIGELDLLFMSLRNACI |  | reduce binding |
| K162A: variant of IL-22 (SEQ ID NO: 5) in which K162 is mutated to alanine (protein, listed as Homo sapiens) MAALQKSVSSFLMGTLATSCLLLLALLVQGGAAAPISSHCRLDKSNFQQPYITNRTFMLAKEASLADNNTDVRLIGEKLFHGVSMSERCYLMKQVLNFTLEEVLFPQSDRFQPYMQEVVPFLARLSNRLSTCHIEGDDLHIQRNVQKLKDTVKKLGESGEIAAIGELDLLFMSLRNACI |  | reduce binding |
| N54A: variant of IL-22 (SEQ ID NO: 5) in which N54 is mutated to alanine (protein, listed as Homo sapiens) MAALQKSVSSFLMGTLATSCLLLLALLVQGGAAAPISSHCRLDKSNFQQPYITARTFMLAKEASLADNNTDVRLIGEKLFHGVSMSERCYLMKQVLNFTLEEVLFPQSDRFQPYMQEVVPFLARLSNRLSTCHIEGDDLHIQRNVQKLKDTVKKLGESGEIKAIGELDLLFMSLRNACI | reduce binding |  |
| Y51A: variant of IL-22 (SEQ ID NO: 5) in which Y51 is mutated to A (protein, listed as Homo sapiens) MAALQKSVSSFLMGTLATSCLLLLALLVQGGAAAPISSHCRLDKSNFQQPAITNRTFMLAKEASLADNNTDVRLIGEKLFHGVSMSERCYLMKQVLNFTLEEVLFPQSDRFQPYMQEVVPFLARLSNRLSTCHIEGDDLHIQRNVQKLKDTVKKLGESGEIKAIGELDLLFMSLRNACI | reduce binding |  |
| D67A: variant of IL-22 (SEQ ID NO: 5) in which D67 is mutated to alanine (protein, listed as Homo sapiens) MAALQKSVSSFLMGTLATSCLLLLALLVQGGAAAPISSHCRLDKSNFQQPYITNRTFMLAKEASLAANNTDVRLIGEKLFHGVSMSERCYLMKQVLNFTLEEVLFPQSDRFQPYMQEVVPFLARLSNRLSTCHIEGDDLHIQRNVQKLKDTVKKLGESGEIKAIGELDLLFMSLRNACI |  | reduce binding |
| V72A: variant of IL-22 (SEQ ID NO: 5) in which V72 is mutated to A (protein, listed as Homo sapiens) MAALQKSVSSFLMGTLATSCLLLLALLVQGGAAAPISSHCRLDKSNFQQPYITNRTFMLAKEASLADNNTDARLIGEKLFHGVSMSERCYLMKQVLNFTLEEVLFPQSDRFQPYMQEVVPFLARLSNRLSTCHIEGDDLHIQRNVQKLKDTVKKLGESGEIKAIGELDLLFMSLRNACI |  | reduce binding |
| E117A: variant of IL-22 (SEQ ID NO: 5) in which E117 is mutated to alanine (protein, listed as Homo sapiens) MAALQKSVSSFLMGTLATSCLLLLALLVQGGAAAPISSHCRLDKSNFQQPYITNRTFMLAKEASLADNNTDVRLIGEKLFHGVSMSERCYLMKQVLNFTLEEVLFPQSDRFQPYMQAVVPFLARLSNRLSTCHIEGDDLHIQRNVQKLKDTVKKLGESGEIKAIGELDLLFMSLRNACI | reduce binding |  |
